Test results: patent US20240327505A1

What was measured:
Assay in all cases: cell-based or functional assay
[1] = molecular target: SARS-CoV-2 "Epsilon" B.1.427/9 full-length Spike protein on pseudovirus (SARS-CoV-2) (UniProt P0DTC2)
[2] = molecular target: SARS-CoV-2 "Gamma" Brazil P.1.B.1.1.28 full-length Spike protein on pseudovirus (SARS-CoV-2) (UniProt P0DTC2)
[3] = molecular target: SARS-CoV-2 "Delta-plus" B.1.617.2.1 full-length Spike protein on pseudovirus (SARS-CoV-2) (UniProt P0DTC2)
[4] = molecular target: SARS-CoV-2 "Alpha" UK B.1.1.7 full-length Spike protein on pseudovirus (SARS-CoV-2) (UniProt P0DTC2)
[5] = molecular target: SARS-CoV-2 "Beta" SA B.1.351 full-length Spike protein on pseudovirus (SARS-CoV-2) (UniProt P0DTC2)
[6] = molecular target: SARS-CoV-2 "Delta" B.1.617.2 full-length Spike protein on pseudovirus (SARS-CoV-2) (UniProt P0DTC2)

Substance	Pseudovirus Neturalization [1] [µg/mL]	Pseudovirus Neturalization [2] [µg/mL]	Pseudovirus Neturalization [3] [µg/mL]	Pseudovirus Neturalization [4] [µg/mL]	Pseudovirus Neturalization [5] [µg/mL]	Pseudovirus Neturalization [6] [µg/mL]
Anti-Nucleocapsid (Neg Control) (antibody)	> 50	> 50	> 50	> 50	> 50	> 50
CA-1 (AB-009265) (antibody)	0.33	> 50	41.5	0.209	> 50	2.19
CB-6 (AB-009264) (antibody)	0.009	> 50	> 50	0.417	> 50	0.004
COVA1-21 (AB-010159) (antibody)	> 50	> 50	> 50	> 50	> 50	> 50
CR3022 (AB-009073) (antibody)	> 50	> 50	> 50	> 50	> 50	> 50
LY-CoV555 | Bamlanivimab (AB-010160) (antibody)	7.82	> 50	6.93	0.0012	> 50	19.3
REGN10933 | Casirivimab (AB-010156) (antibody)	0.001	0.666	0.001	–	1.09	0.001
REGN10987 | Imdevimab (AB-010157) (antibody)	0.001	–	0.001	–	–	0.001
